# Legend:
# [1] = molecular target: BBMV proteins (receptor binding sites) in brush border membrane vesicles from fall armyworm (FAW; Spodoptera frugiperda) larval midgut; assay: homologous competition: unlabeled Cry1Be against 0.5 nM 125I Cry1Be on FAW BBMVs
# [2] = molecular target: BBMV proteins (receptor binding sites) in brush border membrane vesicles from European corn borer (ECB; Ostrinia nubilalis) larval midgut; assay: heterologous competition: unlabeled Cry1Be against 0.5 nM 125I Cry1Ab on ECB BBMVs
# [3] = molecular target: BBMV proteins (receptor binding sites) in brush border membrane vesicles from fall armyworm (FAW; Spodoptera frugiperda) larval midgut; assay: heterologous competition: unlabeled Cry1Be against 0.5 nM 125I Cry1Ab on FAW BBMVs
# [4] = molecular target: BBMV proteins (receptor binding sites) in brush border membrane vesicles from European corn borer (ECB; Ostrinia nubilalis) larval midgut; assay: heterologous competition: unlabeled Cry1Be against 0.5 nM 125I Cry1Ab on ECB BBMVs; reference is homologous Cry1Ab
# [5] = molecular target: BBMV proteins (receptor binding sites) in brush border membrane vesicles from fall armyworm (FAW; Spodoptera frugiperda) larval midgut; assay: heterologous competition: unlabeled Cry1Be against 0.5 nM 125I Cry1Ab on FAW BBMVs; reference is homologous Cry1Ab
binder,measurement,setting,value
"Cry1Be insecticidal protein (purified truncated Cry toxin) (ligand, ^125I iodination (Iodo-Beads) in the radiolabeled form only; sites not stated) IEDSLCIAEGNNIDPFVSASTVQTGINIAGRILGVLGVPFAGQIASFYSFLVGELWPRGRDPWEIFLEHVEQLIRQQVTENTRDTALARLQGLGNSFRAYQQSLEDWLENRDDARTRSVLYTQYIALELDFLNAMPLFAIRNQEVPLLMVYAQAANLHLLLLRDASLFGSEFGLTSQEIQRYYERQVEKTREYSDYCARWYNTGLNNLRGTNAESWLRYNQFRRDLTLGVLDLVALFPSYDTRVYPMNTSAQLTREIYTDPIGRTNAPSGFASTNWFNNNAPSFSAIEAAVIRPPHLLDFPEQLTIFSVLSRWSNTQYMNYWVGHRLESRTIRGSLSTSTHGNTNTSINPVTLQFTSRDVYRTESFAGINILLTTPVNGVPWARFNWRNPLNSLRGSLLYTIGYTGVGTQLFDSETELPPETTERPNYESYSHRLSNIRLISGNTLRAPVYSWTHRSADRTNTISSDSITQIPLVKSFNLNSGTSVVSGPGFTGGDIIRTNVNGSVLSMGLNFNNTSLQRYRVRVRYAASQTMVLRVTVGGSTTFDQGFPSTMSANESLTSQSFRFAEFPVGISASGSQTAGISISNNAGRQTFHFDKIEFIPITAT",IC50,[1],2 nM
same,IC50,[2],40 nM
same,IC50,[3],300 nM
same,"fold higher concentration for 50% displacement, against Cry1Ab",[4],80 fold
same,"fold greater concentration for 50% displacement, against Cry1Ab",[5],1000 fold
